Assay: soluble on expression in E. coli; label from the status in PepcDB or PDB records

Sequence | soluble on expression in E. coli
MVHDSALPFDALPMPPQGREGFEECPYLDSQWVADTNGQRMTGQGVDTRFDTPACVFWSYPEAPQATVMVRHMPSEEEAIRVVDWAAPIDTTEPAEEPDGWSGGRAGHEEGAVYAVQKGPVAVVVWSNQQQSLKAELMAKEAIARLGL | soluble
MKRKTKIVSTIGPASESVDKLVQLMEAGMNVARLNFSHGDHEEHGRRIANIREAAKRTGRTVAILLDTKGPEIRTHNMENGAIELKEGSKLVISMSEVLGTPEKISVTYPSLIDDVSVGAKILLDDGLISLEVNAVDKQAGEIVTTVLNGGVLKNKKGVNVPGVKVNLPGITEKDRADILFGIRQGIDFIAASFVRRASDVLEIRELLEAHDALHIQIIAKIENEEGVANIDEILEAADGLMVARGDLGVEIPAEEVPLIQKLLIKKSNMLGKPVITATQMLDSMQRNPRPTRAEASDVANAIFDGTDAVMLSGETAAGQYPVEAVKTMHQIALRTEQALEHRDILSQRTKESQTTITDAIGQSVAHTALNLDVAAIVTPTVSGKTPQMVAKYRPKAPIIAVTSNEAVSRRLALVWGVYTKEAPHVNTTDEMLDVAVDAAVRSGLVKHGDLVVITAGVPVGETGSTNLMKVHVISDLLAKGQGIGRKSAFGKAVVAKTAEEARQKMVDGGILVTVSTDADMMPAIEKAAAIITEEGGLTSHAAVVGLSLGIPVIVGVENATTLFKDGQEITVDGGFGAVYRGHASVL | soluble
MERTVKLRVKVDYKTYSALKEVEKEYREVLEEAINYGLSNKTTSFTRIKAGVYKTEREKHKDLPSHYIYTACEDASERLDSFEKLKRRGRSYTEKPSVRRVTIHLDDHLWKFNLDRISISTKRSRILISPTFPKIFWRYYNKGWRIASEARFKLLKGNVVEFYVIFKRDEPKPYEPKGFISVDLNENSVSVLVDGKPMLLETNTKRITLGYEYRRKAITTGKSTKDREVRRKLKRLRERNKKVDIRRKLAKLIVKEAFESRSVIVLEDLPRRTPEHMIKDVKDSQLRLRIYRAAFSSMKNAIIEKAREFGVPVVLVNPSHTSTVCPVHGTKIVYQLDGGDAPRVGVCEKGKEKWHRDVVALYNLARRAGDVSPVPLGSKESHDPPKRWLRAKSLHSIMNDHKMIEMKVLEHHHHHH | not soluble
MAHHHHHHMTGADPDMLGSSAPNRPALMEPSVAPSPTSSPPATNAHANGSNSNGAGNVPLSQSTWRDSAAGSQPHGHGMPSTVRAADAPGVTEEKQAEGAFGADVHYNPATEHDFAVRGGLDGGAEGEHNSAKKIRLNNVSHFKNVPSRLNVQRQSTEADLVPCTYCGRKFLPGRVQKHEDCCIDRSKPLTARKGGALPARPSTGAATPRLAKPTPAAPAVESAATGKAKFCGGCGCKKSEPDQKFCTECGHKL | soluble
MTNEADKFVVDVIYALPTQQKVISVSVLPGTSAIDIVRQSNMVSFFPEIELETVKLGVFSNVVKHDQVILPGQRVEIYRPLIADPKDVRRRRADKAKDEGRANKVTGGRVS | soluble
MAHHHHHHMITSINVIHELLTTIYCRIFSRKRKDIYKYDVLLYLQDYYYFDVIKRVSDDIKELDDDSITIEINSNEYEVILNGDKSSSFFNHTFENFCIHRGYDIIKDKTYSNEYEKRIDFLHELLCDLLCLLLNENNEKKGKEKEKEEKKNNMNKNMNYNKERVINKMYHNNNHLFKKFWENIQDILKEINILNENKYVEDINEENIKDILYIQKEKLIKNEDIIIKKNVDINKITLLNNLIEKYNNEYKYRFYYIFLNNYLTIQTMFTSNMIYLYSYEIQNIIHKIIKMKINLYQPLTIYDVLAFQYDQIMFHKSSYMNLISPVKKIKILNNIVERGGDPDEFSKKVIIKDVINANISLKAKFNKARTQNDNNWGNNKYKVRNYYDNNRR | soluble
MLDLHLTMSNSMNYMKAATAYINLEALQHNLQRVKQQAPESKIMAVVKANGYGHGLRHIARHALGADAFGVARIEEALQLRASGVVKPILLLEGFYSPGDLPVLVTNNIQTVVHCEEQLQALEQAQLETPVMVWLKVDSGMHRLGVRPEQYQDFVARLHQCENVAKPLRYMSHFGCADELDKSTTVEQTELFLSLTQGCQGERSLAASAGLLAWPQSQLEWVRPGIIMYGVSPFVEKSAVQLGYQPVMTLKSHLIAVREVKAGESVGYGGTWTSQRDTKIGVIAIGYGDGYPRTAPNGTPVVVNGRRVPIAGRVSMDMLTVDLGPDACDRVGDEAMLWGNELPVEEVAAHIGTIGYELVTKLTSRVEMSYYGAGV | not soluble

From the DeepSol protein solubility set
